Reference: publication PMC3662786, “miR172b Controls the Transition to Autotrophic Development Inhibited by ABA in Arabidopsis”

Assays:
Settings in all cases: protein: recombinant; tags: MBP fusion; label: 3' biotin; blunt
MBP-SNZ [1] = target: T1, MBP-SNZ (Arabidopsis thaliana, UniProt Q6PV67 1-325); test: EMSA; poly(dI-dC), 5 mM MgCl2; LightShift EMSA binding buffer, 50 ng poly(dI-dC), 2.5% glycerol, 0.06% NP-40, 5 mM MgCl2, 19 mg BSA (so in the source), 28 ug protein, 5 pmol probe, 30 min room temperature; pH and salt not given
MBP-SNZ [2] = target: T1, MBP-SNZ; test: EMSA; poly(dI-dC), 5 mM MgCl2; unlabeled RAV1-A probe reduced binding; LightShift EMSA binding buffer, 50 ng poly(dI-dC), 2.5% glycerol, 0.06% NP-40, 5 mM MgCl2, 19 mg BSA (so in the source), 28 ug protein, 5 pmol probe, 30 min room temperature; pH and salt not given
MBP-SNZ [3] = target: T1, MBP-SNZ; test: EMSA; poly(dI-dC), 5 mM MgCl2; unlabeled probe (50x, 250x) inhibited binding; LightShift EMSA binding buffer, 50 ng poly(dI-dC), 2.5% glycerol, 0.06% NP-40, 5 mM MgCl2, 19 mg BSA (so in the source), 28 ug protein, 5 pmol probe, 30 min room temperature; pH and salt not given

T1 sequence (Q6PV67 whole entry): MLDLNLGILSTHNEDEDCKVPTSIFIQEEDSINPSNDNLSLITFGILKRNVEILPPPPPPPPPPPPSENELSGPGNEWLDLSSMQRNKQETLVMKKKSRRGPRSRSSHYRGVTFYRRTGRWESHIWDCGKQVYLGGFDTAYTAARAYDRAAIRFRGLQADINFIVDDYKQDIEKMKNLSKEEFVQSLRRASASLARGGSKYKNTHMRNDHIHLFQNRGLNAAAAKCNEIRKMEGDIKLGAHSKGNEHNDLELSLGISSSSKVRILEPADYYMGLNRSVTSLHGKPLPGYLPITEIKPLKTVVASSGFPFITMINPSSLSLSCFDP

B1: mRAV1-A probe (dsDNA)
DNA 1: CACCTGCGGTACGGTACGGTACGGTACGGTACGGTACACCTG
DNA 2: CAGGTGTACCGTACCGTACCGTACCGTACCGTACCGCAGGTG
binding result (MBP-SNZ [1]): no binding

B2: wRAV1-A probe (dsDNA)
DNA 1: CACCTGCAACACAACACAACACAACACAACACAACACACCTG
DNA 2: CAGGTGTGTTGTGTTGTGTTGTGTTGTGTTGTGTTGCAGGTG
binding result (MBP-SNZ [2]): binds

B3: ABI5 probe (dsDNA)
DNA 1: TTAACAACTGCATCATATACACAACAATAAC
DNA 2: GTTATTGTTGTGTATATGATGCAGTTGTTAA
binding result (MBP-SNZ [3]): binds
